From US20120322725A1 (INDIANA UNIVERSITY RESEARCH AND TECHNOLOGY, published 2012)
Like-named read-outs stand apart in the source and are kept apart here. Bridge positions count the residues as written; N and C are the ends. Square brackets hold non-standard residues; d marks the D form. Ends that are not written are not given here. PLA = 3-phenyllactic acid (2-hydroxy-3-phenylpropanoic acid); PhLac = O=C(O)[C@@H](O)Cc1ccccc1

Experiments:
GLP-1 receptor [1] = molecular target: T1, GLP-1 receptor (UniProt P43220 24-463, limits assumed); assay: cell-based or functional assay
glucagon receptor [2] = molecular target: T2, glucagon receptor (UniProt P47871 26-477, limits assumed); assay: cell-based or functional assay
glucagon receptor [3] = molecular target: T2, glucagon receptor; assay: cell-based or functional assay; remark: listed apart in the source
GLP-1 receptor [4] = molecular target: T1, GLP-1 receptor; assay: cell-based or functional assay; remark: listed apart in the source
glucagon receptor [5] = molecular target: T2, glucagon receptor; assay: cell-based or functional assay; remark: listed apart in the source
glucagon receptor [6] = molecular target: T2, glucagon receptor; assay: cell-based or functional assay; remark: listed apart in the source
glucagon receptor [7] = molecular target: T2, glucagon receptor; assay: receptor binding, method not described
glucagon receptor [8] = molecular target: T2, glucagon receptor; assay: receptor binding, method not described; remark: listed apart in the source
glucagon receptor [9] = molecular target: T2, glucagon receptor; assay: receptor binding (named so for the same values in Table I), method not described
glucagon receptor [10] = molecular target: T2, glucagon receptor; assay: cell-based or functional assay; remark: listed apart in the source
glucagon receptor [11] = molecular target: T2, glucagon receptor; assay: receptor binding, method not described; remark: listed apart in the source
glucagon receptor [12] = molecular target: T2, glucagon receptor; assay: receptor binding, method not described; remark: listed apart in the source
glucagon receptor [13] = molecular target: T2, glucagon receptor; assay: cell-based or functional assay; remark: listed apart in the source

T2 sequence (P47871 26-477 limits assumed): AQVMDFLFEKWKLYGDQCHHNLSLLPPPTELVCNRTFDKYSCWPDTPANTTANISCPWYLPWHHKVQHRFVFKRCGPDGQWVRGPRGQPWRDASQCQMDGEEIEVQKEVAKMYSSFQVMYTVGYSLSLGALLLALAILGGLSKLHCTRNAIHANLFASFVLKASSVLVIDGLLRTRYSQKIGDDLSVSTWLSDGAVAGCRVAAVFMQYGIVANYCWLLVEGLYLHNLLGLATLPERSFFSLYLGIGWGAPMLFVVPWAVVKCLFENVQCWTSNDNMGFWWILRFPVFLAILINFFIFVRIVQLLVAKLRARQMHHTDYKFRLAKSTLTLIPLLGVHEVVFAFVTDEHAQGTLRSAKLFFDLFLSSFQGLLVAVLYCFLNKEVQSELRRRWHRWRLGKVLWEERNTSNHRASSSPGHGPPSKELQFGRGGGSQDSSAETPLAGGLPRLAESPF

With {PLA}-TSDYSKYLDERRAKDFVQWLMDT-NH2 (lactam 10-14) [[PLA6, D9, E16K20(lactam), D28]G(6-29)] the “GLP-1 EC50” value (GLP-1 receptor [1]) was 4 nM, the “Glucagon IC50” value (glucagon receptor [2]) was 6 nM and the “Glucagon IC50” value (glucagon receptor [3]) was 10 to 30 nM.

B1: [PLA6, D9, K12E16(Lactam), D28]G(6-29) (peptide)
peptide: TSDYSKYLDERRAQDFVQWLMDT
modifications: not fully specified; PLA at position 6, N-terminal to the letters given; lactam between K12 and E16
In the case of B1, the “GLP-1 EC50” value (GLP-1 receptor [1]) is reported as 21 nM, the “Glucagon IC50” value (glucagon receptor [2]) is reported as 13 nM and the “GLP-1 EC50” value (GLP-1 receptor [4]) is reported as 177 nM. The “Glucagon IC50” value (glucagon receptor [3]) was 63 nM.

B2: [E9, E16K20(lactam), D28]G(4~29) (peptide)
peptide: GTFTSEYSKYLDERRAKDFVQWLMDT
HELM: PEPTIDE1{G.T.F.T.S.E.Y.S.K.Y.L.D.E.R.R.A.K.D.F.V.Q.W.L.M.D.T.[am]}$PEPTIDE1,PEPTIDE1,13:R3-17:R3$$$V2.0; N-terminus assumed
SMILES: CSCC[C@H](NC(=O)[C@H](CC(C)C)NC(=O)[C@H](Cc1c[nH]c2ccccc12)NC(=O)[C@H](CCC(N)=O)NC(=O)[C@@H](NC(=O)[C@H](Cc1ccccc1)NC(=O)[C@H](CC(=O)O)NC(=O)[C@@H]1CCCCNC(=O)CC[C@H](NC(=O)[C@H](CC(=O)O)NC(=O)[C@H](CC(C)C)NC(=O)[C@H](Cc2ccc(O)cc2)NC(=O)[C@H](CCCCN)NC(=O)[C@H](CO)NC(=O)[C@H](Cc2ccc(O)cc2)NC(=O)[C@H](CCC(=O)O)NC(=O)[C@H](CO)NC(=O)[C@@H](NC(=O)[C@H](Cc2ccccc2)NC(=O)[C@@H](NC(=O)CN)[C@@H](C)O)[C@@H](C)O)C(=O)N[C@@H](CCCNC(=N)N)C(=O)N[C@@H](CCCNC(=N)N)C(=O)N[C@@H](C)C(=O)N1)C(C)C)C(=O)N[C@@H](CC(=O)O)C(=O)N[C@H](C(N)=O)[C@@H](C)O
With B2 the “GLP-1 EC50” value (GLP-1 receptor [4]) was 151 nM and the “Glucagon IC50” value (glucagon receptor [3]) was 10 to 30 nM.

With GTFTSEYSKYLDSRRAQDFVQWLMNT-NH2 (also called peptide no) [[Glu^9]Glucagon(aa4-29)-NH2] the “cAMP pA2” value (glucagon receptor [5]) was 7.05 and the “cAMP Inhibition IC50” value (glucagon receptor [6]) was 128 nM.

B3: [Glu^9]Glucagon(aa6-29)-NH2 (peptide)
peptide: FTSEYSKYLDSRRAQDFVQWLMNT-NH2
notes: also called [E^9]Glucagon(aa6-29)-NH2; peptide no
B3 was tested, and the IC50 (glucagon receptor [7]) was 36 nM, the “cAMP (I/A)50” value (glucagon receptor [5]) was 486 and the “cAMP pA2” value (glucagon receptor [5]) was 7.16. The “cAMP Inhibition IC50” value (glucagon receptor [6]) was 97 nM, the IC50 (glucagon receptor [8]) was 36.4 nM and the IC50 (glucagon receptor [9]) was 36.4 nM. The “cAMP IC50” value (glucagon receptor [10]) was 97.2 nM and the “cAMP pA2” value (glucagon receptor [10]) was 7.16.

For [PhLac]TSEYSKYLDSRRAQDFVQWLMNT-NH2 [[PLA6, E9]Glucagon(aa6-29)-NH2], the IC50 (glucagon receptor [11]) was 12.3 nM, the IC50 (glucagon receptor [12]) was 12.3 nM and the “IC50(nM) (cAMP, inhibit 0.8 mM Glucagon)” value (glucagon receptor [13]) was 64.8 nM.

For {Ac-PLA}-TSEYSKYLDSRRAQDFVQWLMNT-NH2 [[Ac-PLA^6, E^9]Glucagon(aa6-29)-NH2], the “IC50(nM) (cAMP, inhibit 0.8 mM Glucagon)” value (glucagon receptor [13]) was 38.1 nM.

In the case of {PLA}-FTSEYSKYLDSRRAQDFVQWLMNT-NH2 [[PLA^5, E^9]Glucagon(aa5-29)-NH2], the “IC50(nM) (cAMP, inhibit 0.8 mM Glucagon)” value (glucagon receptor [13]) is reported as 328 nM.
